Molecular target: Aβ40 (UniProt P05067)
Assay: cell-based or functional assay

Chain of Aβ40 (P05067 672-711 limits assumed): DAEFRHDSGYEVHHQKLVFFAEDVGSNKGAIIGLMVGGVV

Row | Inhibition at 1:1 (ThT assay, Aβ:cyclic peptide) | Inhibition at 1:1/3 (ThT assay, Aβ:cyclic peptide) | Substance
1 | 55% | 42% | [lZwHsK]: Cyclo-D-leucine-L-2-aminooctanoic acid-D-tryptophan-L-histidine-D-serine-L-lysine (peptide)
2 | 69% | 37% | [lJwHsK]: Cyclo-D-leucine-L-noreucine-D-tryptophan-L-histidine-D-serine-L-lysine (peptide)
